How the values were obtained:
[1] = biological target: Recombinant mature human gC1qR (residues 74-282) (UniProt Q07021); assay: ELISA; conditions: 2.5 μg/well gh protein, 90 min at 37°C and 90 min at 4°C, parent: est. 100, read off a plot
[2] = biological target: Recombinant mature human gC1qR (residues 74-282) (UniProt Q07021); assay: ELISA; gC1qR coated at 0.25, 0.5 and 1 μg/well; 2.5 μg/well of gh module or substitution mutant; 90 min at 37°C and 90 min at 4°C; detected with anti-MBP monoclonal antibody

Recombinant mature human gC1qR (residues 74-282), sequence (Q07021 74-282): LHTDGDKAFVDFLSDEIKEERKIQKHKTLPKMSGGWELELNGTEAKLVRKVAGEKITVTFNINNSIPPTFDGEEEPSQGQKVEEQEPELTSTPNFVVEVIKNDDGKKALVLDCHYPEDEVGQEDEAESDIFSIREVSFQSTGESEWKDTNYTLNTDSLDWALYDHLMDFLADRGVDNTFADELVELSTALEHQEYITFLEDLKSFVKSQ
Recombinant globular head module of the human C1q B chain (ghB), MBP fusion (from UniProt P02746) T175L, sequence (P02746 117-253, stated change not applied): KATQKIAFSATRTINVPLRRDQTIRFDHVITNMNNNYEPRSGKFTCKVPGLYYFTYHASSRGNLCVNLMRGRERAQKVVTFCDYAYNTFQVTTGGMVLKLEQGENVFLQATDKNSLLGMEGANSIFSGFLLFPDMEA
Recombinant globular head module of the human C1q B chain (ghB), MBP fusion (from UniProt P02746) R129A, sequence (P02746 117-253, stated change not applied): as above
Recombinant globular head module of the human C1q C chain (ghC), MBP fusion (from UniProt P02747) L170E, sequence (P02747 115-245, stated change not applied): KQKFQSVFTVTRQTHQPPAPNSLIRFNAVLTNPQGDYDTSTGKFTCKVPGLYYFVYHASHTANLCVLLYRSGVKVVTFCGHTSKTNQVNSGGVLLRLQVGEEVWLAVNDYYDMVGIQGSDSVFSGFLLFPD
Recombinant globular head module of the human C1q C chain (ghC), MBP fusion (from UniProt P02747) R156E, sequence (P02747 115-245, stated change not applied): as above
Recombinant globular head module of the human C1q C chain (ghC), MBP fusion (from UniProt P02747) H101A, sequence (P02747 115-245, stated change not applied): as above

“Recombinant globular head module of the human C1q B chain (ghB), MBP fusion (from UniProt P02746) R129A” was tested, and the percent of parent ([1]; 0.25 μg/well gC1qR coated) was 27 % binding, the percent of parent ([1]; 0.5 μg/well gC1qR coated) was 33 % binding and the percent of parent ([1]; 1 μg/well gC1qR coated) was 30 % binding.
Work on “Recombinant globular head module of the human C1q B chain (ghB), MBP fusion (from UniProt P02746) T175L” yielded a percent of parent ([1]; 0.25 μg/well gC1qR coated) of 62 % binding, a percent of parent ([1]; 0.5 μg/well gC1qR coated) of 56 % binding and a percent of parent ([1]; 1 μg/well gC1qR coated) of 68 % binding.
“Recombinant globular head module of the human C1q C chain (ghC), MBP fusion (from UniProt P02747) H101A” showed a percent of parent ([1]; 0.25 μg/well gC1qR coated) of 51 % binding and a percent of parent ([1]; 1 μg/well gC1qR coated) of 79 % binding.
With “Recombinant globular head module of the human C1q C chain (ghC), MBP fusion (from UniProt P02747) L170E” the percent of parent ([1]; 0.25 μg/well gC1qR coated) was 62 % binding, the percent of parent ([1]; 0.5 μg/well gC1qR coated) was 91 % binding and the percent of parent ([1]; 1 μg/well gC1qR coated) was 100 % binding.
Substance “Recombinant globular head module of the human C1q C chain (ghC), MBP fusion (from UniProt P02747) R156E” has a percent of parent ([1]; 0.25 μg/well gC1qR coated) of 81 % binding, a percent of parent ([1]; 0.5 μg/well gC1qR coated) of 110 % binding and a percent of parent ([1]; 1 μg/well gC1qR coated) of 110 % binding.
“ghA-R162A, MBP fusion (from UniProt P02745 23-245) (domain or fragment)” was tested, and the percent reduction in binding against wild-type ghA [2] was < 70%.
“ghB-H117D, MBP fusion (from UniProt P02746 28-253) (domain or fragment)” was tested, and the percent reduction in binding against wild-type ghB [2] was 60%.

— PMC5153404
